Reference: PMC2963697

Assays:
[1] = substrate: C=CC=C(O)C(=O)O; assay: UV spectrophotometric tautomerase assay, steady state; type: biochemical, Helicobacter pylori; conditions: reaction 3 -> 6, 20 mM sodium phosphate, pH 7.3, 23 °C
[2] = substrate: C=CC=C(O)C(=O)O; assay: as above; type: biochemical, Archaeoglobus fulgidus; conditions: reaction 3 -> 6, 20 mM sodium phosphate, pH 7.3, 23 °C

| Protein | Km [1] [µM] | kcat [1] [s⁻¹] | kcat/Km [1] [M⁻¹ s⁻¹] | Km [2] [µM] | kcat [2] [s⁻¹] | kcat/Km [2] [M⁻¹ s⁻¹] |
| --- | --- | --- | --- | --- | --- | --- |
| HpDmpI (Helicobacter pylori 26695) (protein) PFINIKLVPENGGPTNEQKQQLIEGVSDLMVKVLNKNKASIVVIIDEVDSNNYGLGGESVHHLRQKN | 190 ± 40 | 2.5 ± 0.3 | 13000 | – | – | – |
| AfDmpI (Archaeoglobus fulgidus DSM 4304) (protein) PVLIVYGPKLDVGKKREFVERLTSVAAEIYGMDRSAITILIHEPPAENVGVGGKLIADRERE | – | – | – | 90 ± 30 | 0.1 ± 0.02 | 1100 |
